The source of these data is PMC4067530, “Evidence for a DNA-relay mechanism in ParABS-mediated chromosome segregation” (eLife, 2014).

In data set [1] the target is T1, ParA (Caulobacter vibrioides, UniProt B8GW31, R195E).
T1 construct: full length, recombinant from E. coli BL21(DE3), pET24HT-ParA, His6 tag removed by TEV protease
The data set is described as follows: size exclusion chromatography (ATP-dependent dimerization). Type of data set: binding. The settings on record: 2.5 mM Mg-ATP, pH 7.5, 150 mM potassium glutamate; mutant does not bind DNA.

Data set [2] addresses Caulobacter crescentus ParA (wild type) (C. crescentus). The data set is described as follows: SEC; +ATP: ParA freed of ATP (EDTA, buffer exchange), then mixed with 2.5 mM Mg-ATP, 10 min at room temperature; 50 µl at approximately 50 µM on Superdex 75 10/300 GL in 25 mM Hepes/KOH pH 7.5, 150 mM KGlu, 5 mM MgSO4, 2 mM Mg-ATP, 0.1 mM EDTA, 1 mM DTT; monomer to dimer.
Data set [3] deals with Caulobacter crescentus ParA R195E (DNA-binding deficient mutant) (C. crescentus). The description is as above.
In data set [4] the target is Caulobacter crescentus ParB-His6 (wild type) (C. crescentus). Nature of the data set: SEC-MALS; SEC-UV/LS/RI; purified His6-ParB on Superose 6 10/30 HR in 100 mM HEPES pH 7.4, 150 mM NaCl, 1 mM DTT, 0.3 ml/min; monomer to dimer.
Data set [5] addresses Caulobacter crescentus ParA (wild type) (C. crescentus).
Data set [6] shares this target. The source holds these as a separate data set.
Substrate in data set [7]: Nc1ncnc2c1ncn2[C@@H]1O[C@H](COP(=O)(O)OP(=O)(O)OP(=O)(O)O)[C@@H](O)[C@H]1O
The data set is described as follows: NADH-coupled ATPase assay (pyruvate kinase/lactate dehydrogenase). The settings on record: 10 µM ParA, 1.5 mg/ml salmon sperm DNA, no ParB, 10 mM MgSO4, 150 mM potassium glutamate, pH 7.4, 30 °C. It is filed as biochemical, Caulobacter vibrioides. The source says:
NADH-coupled ATPase assay (pyruvate kinase/lactate dehydrogenase) on ParA | ATPase activity was dependent on the concentration of ATP (Figure 1E), resulting in a KM

T1 sequence (B8GW31 whole entry R195E): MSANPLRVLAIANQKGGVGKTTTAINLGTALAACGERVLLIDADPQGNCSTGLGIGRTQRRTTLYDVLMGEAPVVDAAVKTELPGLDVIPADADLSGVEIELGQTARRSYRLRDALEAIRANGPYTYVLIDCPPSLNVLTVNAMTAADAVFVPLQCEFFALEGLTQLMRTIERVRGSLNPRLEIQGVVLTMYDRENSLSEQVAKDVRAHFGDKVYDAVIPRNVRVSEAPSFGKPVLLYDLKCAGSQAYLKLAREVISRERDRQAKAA

Turning to `Nc1ncnc2c1ncn2[C@@H]1O[C@H](COP(=O)(O)OP(=O)(O)OP(=O)(O)O)[C@@H](O)[C@H]1O` [ATP], in data set [1], the “size exclusion chromatography (ATP-dependent dimerization)” value is reported as “ParAR195E mutant (Figure 1C), which can still dimerize upon ATP binding (Figure 1A)”.
“Caulobacter crescentus ParA (wild type) (enzyme)” had a stoichiometry N in data set [2] of 2.
With “Caulobacter crescentus ParA R195E (DNA-binding deficient mutant) (enzyme)”, the stoichiometry N in data set [3] amounted to 2.
For the molecule “Caulobacter crescentus ParB-His6 (wild type) (natural protein)”, the stoichiometry N in data set [4] worked out at 2. Also, the ParA (3 µM) ATPase activity against ParB concentration in the presence of DNA, Michaelis–Menten fit: apparent K (ParB) in data set [5] amounted to 80 µM. Further, in data set [6], the ParA ATPase activity (NADH-coupled assay) with DNA, increase on adding ParB (60 µM) is 10 fold.

B1: ParA (Caulobacter vibrioides NA1000) (protein)
chain: MSANPLRVLAIANQKGGVGKTTTAINLGTALAACGERVLLIDADPQGNCSTGLGIGRTQRRTTLYDVLMGEAPVVDAAVKTELPGLDVIPADADLSGVEIELGQTARRSYRLRDALEAIRANGPYTYVLIDCPPSLNVLTVNAMTAADAVFVPLQCEFFALEGLTQLMRTIERVRGSLNPRLEIQGVVLTMYDRRNSLSEQVAKDVRAHFGDKVYDAVIPRNVRVSEAPSFGKPVLLYDLKCAGSQAYLKLAREVISRERDRQAKAA
notes: full length, recombinant from E. coli BL21(DE3), pET24HT-ParA, His6 tag removed by TEV protease
Regarding B1, in data set [7], the Km came to 150 µM and the catalytic constant (kcat) was found to be 0.00164 s⁻¹.
